# Source: article PMC6743029
# B1: SR-BI (scavenger receptor class B, type I): tunicamycin (protein)
# parent chain: MGCSAKARWAAGALGVAGLLCAVLGAVMIVMVPSLIKQQVLKNVRIDPSSLSFNMWKEIPIPFYLSVYFFDVMNPSEILKGEKPQVRERGPYVYREFRHKSNITFNNNDTVSFLEYRTFQFQPSKSHGSESDYIVMPNILVLGAAVMMENKPMTLKLIMTLAFTTLGERAFMNRTVGEIMWGYKDPLVNLINKYFPGMFPFKDKFGLFAELNNSDSGLFTVFTGVQNISRIHLVDKWNGLSKVDFWHSDQCNMINGTSGQMWPPFMTPESSLEFYSPEACRSMKLMYKESGVFEGIPTYRFVAPKTLFANGSIYPPNEGFCPCLESGIQNVSTCRFSAPLFLSHPHFLNADPVLAEAVTGLHPNQEAHSLFLDIHPVTGIPMNCSVKLQLSLYMKSVAGIGQTGKIEPVVLPLLWFAESGAMEGETLHTFYTQLVLMPKVMHYAQYVLLALGCVLLLVPVICQIRSQVGAGQRAARADSHSLACWGKGASDRTLWPTAAWSPPPAAVLRLCRSGSGHCWGLRSTLASFACRVATTLPVLEGLGPSLGGGTGS
# Experiment: Western blot, Huh7.5.1 lysates, 16 h
# Conditions: glycan lost; control: untreated
protein,measurement,value
B1,expression_or_secretion,decreases
